T1: extracellular domain of human CD73 protein (CD73-ECD), C-terminus polyhistidine-tagged (human, UniProt P21589 27-547)
T1 construct: also called Human CD73-ECD; human recombinant CD73 enzyme (CD73 extracellular domain)
T1 sequence: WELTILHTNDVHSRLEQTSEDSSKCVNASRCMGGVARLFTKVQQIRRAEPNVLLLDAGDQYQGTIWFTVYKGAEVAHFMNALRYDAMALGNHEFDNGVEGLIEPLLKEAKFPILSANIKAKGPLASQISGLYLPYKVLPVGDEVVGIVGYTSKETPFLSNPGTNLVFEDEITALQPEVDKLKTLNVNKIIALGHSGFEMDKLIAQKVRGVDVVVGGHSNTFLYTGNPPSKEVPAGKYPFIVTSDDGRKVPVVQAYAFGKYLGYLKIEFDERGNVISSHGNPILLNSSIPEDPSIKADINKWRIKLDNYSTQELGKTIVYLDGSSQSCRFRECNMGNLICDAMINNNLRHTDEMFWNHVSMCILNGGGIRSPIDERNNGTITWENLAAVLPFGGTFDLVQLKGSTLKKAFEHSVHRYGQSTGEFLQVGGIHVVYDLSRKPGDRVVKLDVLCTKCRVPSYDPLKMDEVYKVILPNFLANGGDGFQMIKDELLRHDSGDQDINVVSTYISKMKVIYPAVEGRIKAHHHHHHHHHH

T2: CD73 on the surface of human tumor cells (human, UniProt P21589 27-549)
T2 construct: whole, on cells; One entry for endogenous CD73 on all cell lines; the cell line is named under assay or readout; also called CD73 receptors on the surface of tumor cells; tumor cell CD73
T2 sequence (looked up): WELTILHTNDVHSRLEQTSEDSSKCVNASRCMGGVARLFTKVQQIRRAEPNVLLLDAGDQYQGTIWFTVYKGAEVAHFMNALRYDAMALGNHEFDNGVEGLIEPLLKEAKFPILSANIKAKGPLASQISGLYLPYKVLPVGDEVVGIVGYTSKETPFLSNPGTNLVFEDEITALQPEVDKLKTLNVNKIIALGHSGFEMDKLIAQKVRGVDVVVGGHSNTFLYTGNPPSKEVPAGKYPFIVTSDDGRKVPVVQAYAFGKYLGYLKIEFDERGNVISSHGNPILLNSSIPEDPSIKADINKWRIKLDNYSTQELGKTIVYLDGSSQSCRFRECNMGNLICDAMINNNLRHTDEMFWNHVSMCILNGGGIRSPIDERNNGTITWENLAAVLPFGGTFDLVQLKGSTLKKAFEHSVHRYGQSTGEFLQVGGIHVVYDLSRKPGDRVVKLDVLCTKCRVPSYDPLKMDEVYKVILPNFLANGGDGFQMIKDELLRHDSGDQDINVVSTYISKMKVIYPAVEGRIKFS


Assays:
[1] = biological target: T1, extracellular domain of human CD73 …; assay: ELISA, coated CD73-ECD
[2] = biological target: T2, CD73 on the surface of human tumor cells; assay: confocal microscopy, 5 µg/mL antibody, MDA-MB-231 cells
Method: The antibodies (5 μg/mL) were incubated with the cells at 4° C. for 1 hour, or at 37° C. for 4 hours, and then placed under a laser scanning confocal microscope to observe the results.
MDA-MB-231 cells of 50% density were spread in a laser confocal culture dish, cultured at 37° C. for 16 hours, and then 5 μg/mL CD73 antibody was added. The cells were incubated at 37° C. for 4 hours or 4° C. for 1 hour, washed three times with PBS to remove the antibodies unbound to the cells, and immobilized with 4% paraformaldehyde at room temperature for 30 minutes. The cells were washed three times with PBS and permeabilized with 0.4% Triton X-100 for 10 minutes. The cells were washed three times with PBS, the Lamp-2 (rabbit anti-human) antibody was added and incubated at 37° C. for 1 hour to mark the position of cell lysosome. The unbound antibodies were washed off with PBS, and R-PE-labeled goat anti-human and Alexa Fluor 488-labeled donkey anti-rabbit secondary antibodies were added and incubated at 37° C. for 30 min.

Binder	binding result [1]	binding result [2]
Hu001c-14 (antibody, V domains shown, Humanized) VH: QVQLVQSGAEVKKPGASVKVSCKTSGYTFTNYYIYWVRQAPGQRLEWMGWIYPGNLNIKYNEKFKGRVTITADTSASTAYMELSSLRSEDTAVYYCARDDNYAWFAYWGQGTLVTVSS VL: DIQMTQSPSSLSASVGDRVTITCKASQDVSTAVAWYQQKPGKAPKLLIYWTNTRHTGVPSRFSGSGSGTDHTLTISSLQPEDFATYYCQQHYSTPFTFGQGTKLEIK	binds	binds
Hu001c-15 (antibody, V domains shown, Humanized) VH: QVQLVQSGAEVKKPGASVKVSCKTSGYTFTNYYIYWVRQAPGQRLEWMGWIYPGNLNIKYNEKFKGRVTITADTSASTAYMELSSLRSEDTAVYYCARDDNYAWFAYWGQGTLVTVSS VL: DIQMTQSPSSLSASVGDRVTITCKASQDVSTAVAWYQQKPGKSPKLLIYWTNTRHTGVPSRFSGSGSGTDHTLTISSLQPEDFATYYCQQHYSTPFTFGQGTKLEIK	binds	binds

From patent publication US20210024646A1 (FUDAN UNIVERSITY, published 2021)
